# Publication PMC7803729 (Nature Communications, 2021)
# Target: SARS-CoV-2 S protein RBD (Arg319-Asn536) with a polyhistidine tag at the C-terminus, manufactured by Celltrion (SARS-CoV-2, Wuhan-Hu-1 (YP_009724390.1), UniProt P0DTC2)
# Test: SPR
# Conditions: both partners purified
binder,measurement,value
"CT-P59 monoclonal antibody, full-length fully human IgG (antibody, V domains shown) VH: QITLKESGPTLVKPTQTLTLTCSFSGFSLSTSGVGVGWIRQPPGKALEWLALIDWDDNKYHTTSLKTRLTISKDTSKNQVVLTMTNMDPVDTATYYCARIPGFLRYRNRYYYYGMDVWGQGTTVTVSS VL: ELVLTQPPSVSAAPGQKVTISCSGSSSNIGNNYVSWYQQLPGTAPKLLIYDNNKRPSGIPDRFSGSKSGTSATLGITGLQTGDEADYYCGTWDSSLSAGVFGGGTELTVL",Kd,27 pM
